Data: US20260184775A1 (Chugai, published 2026)

Legend:
[1] = biological target: T1, recombinant human latent TGF-beta 1 (Flag-tagged human latent TGF-beta 1) (human, UniProt P01137 34-390); test: SPR, Biacore T200, 37 C, pH 7.4; antibody captured by anti-human Fc, latent TGF-beta 1 injected at 3.125 to 50 nM
T1 construct: Latent form: LAP plus mature TGF-beta 1; also called human recombinant latent TGF-beta 1; SLC
Protocol: (§1) The affinities of anti-latent TGF-beta 1 antibodies binding to human or mouse latent TGF-beta 1 at pH 7.4 were determined at 37 degrees C. using Biacore T200 instrument (GE Healthcare). Anti-human Fc (GE Healthcare) was immobilized onto all flow cells of a CM4 sensor chip using an amine coupling kit (GE Healthcare). All antibodies and analytes were prepared in ACES pH 7.4 containing 20 mM ACES, 150 mM NaCl, 1.2 mM CaCl₂), 0.05% Tween 20, 0.005% NaN3. Each antibody was captured onto the sensor surface by anti-human Fc. Antibody capture levels were aimed at 300 resonance unit (RU). For TBA865 and TBA873, recombinant human or mouse latent TGF-beta 1 was injected at 12.5 to 200 nM prepared by two-fold serial dilution, followed by dissociation. For TBS139 and TBS182, recombinant human or mouse latent TGF-beta 1 was injected at 3.125 to 50 nM prepared by two-fold serial dilution, followed by dissociation. The sensor surface was regenerated each cycle with 3M MgCl2.

[2] = biological target: T2, recombinant mouse latent TGF-beta 1 (Flag-tagged mouse latent TGF-beta 1) (mouse, UniProt P04202 34-390); test: SPR, Biacore T200, 37 C, pH 7.4; antibody captured by anti-human Fc, latent TGF-beta 1 at 3.125 to 50 nM as analyte; 1:1 model
T2 construct: also called mouse recombinant latent TGF-beta 1
Protocol: as §1

T2 sequence (P04202 other isoform, or with tags, fused parts or gaps limits assumed): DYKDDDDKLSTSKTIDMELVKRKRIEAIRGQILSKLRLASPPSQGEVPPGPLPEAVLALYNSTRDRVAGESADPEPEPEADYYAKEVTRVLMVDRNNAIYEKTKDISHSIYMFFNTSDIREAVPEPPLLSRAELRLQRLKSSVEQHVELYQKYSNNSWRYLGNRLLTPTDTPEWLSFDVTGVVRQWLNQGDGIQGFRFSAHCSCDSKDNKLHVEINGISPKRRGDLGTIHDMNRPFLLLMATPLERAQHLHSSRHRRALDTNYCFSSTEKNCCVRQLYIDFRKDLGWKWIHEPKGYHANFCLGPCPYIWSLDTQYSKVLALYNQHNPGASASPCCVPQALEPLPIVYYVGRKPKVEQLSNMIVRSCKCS
T1 sequence (P01137 other isoform, or with tags, fused parts or gaps limits assumed): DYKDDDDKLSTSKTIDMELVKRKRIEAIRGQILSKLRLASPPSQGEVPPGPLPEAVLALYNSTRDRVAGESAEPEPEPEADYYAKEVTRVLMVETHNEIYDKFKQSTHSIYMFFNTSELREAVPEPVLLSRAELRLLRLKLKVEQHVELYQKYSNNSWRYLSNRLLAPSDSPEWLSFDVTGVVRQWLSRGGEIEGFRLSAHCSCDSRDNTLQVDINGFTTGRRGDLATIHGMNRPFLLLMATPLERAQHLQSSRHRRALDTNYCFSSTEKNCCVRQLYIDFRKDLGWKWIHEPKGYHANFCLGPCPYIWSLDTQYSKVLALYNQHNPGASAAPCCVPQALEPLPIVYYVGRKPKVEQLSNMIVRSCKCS

- binding result [1]: no binding (tested: 50 nM)
- Kd [2]: 48.2 pM
- koff [2]: 5.32e-05 s⁻¹
- kon [2]: 1.1e+06 M⁻¹ s⁻¹
B1: TBS182 (antibody, V domains shown)
VH: QSLEESGGDLVKPGASLTLTCTASGFSFSRSYYMCWVRQAPGKGLEWIACIYGGSSGSTWYASWAKGRFTISKTSSTTVTLQMTSLTAADTATYFCARDIGNYYRWWGPGTLVTVSS
VL: AVVLTQTTSPVSAPVGGTVTIKCQASKNIYSLLAWYQQKPGQPPKLLIYDASTLASGVPSRFKGSGSGTQFTLTISDLECADAATYYCQSYYDSSSSADLSTFGGGTEVVVKR
